Legend:
HLA-A*03:01 [1] = assay: IEDB peptide-MHC binding, purified MHC/competitive/radioactivity; ≥ and ≤ were set here for values at or beyond the usual limits of such assays; details: source organism: Human immunodeficiency virus type 1 (NDK ISOLATE)
HLA-A*24:02 = assay: IEDB peptide-MHC binding, purified MHC/competitive/radioactivity; filed as Kd, often an IC50 or EC50 that approximates it; ≥ and ≤ were set here for values at or beyond the usual limits of such assays
HLA-A*02:01 [2] = assay: as above
HLA-A*01:01 = assay: as above
HLA-A*11:01 = assay: as above
HLA-A*02:01 [3] = assay: IEDB peptide-MHC binding, purified MHC/competitive/radioactivity; ≥ and ≤ were set here for values at or beyond the usual limits of such assays; details: source organism: Hepatitis B virus subtype adyw
HLA-A*03:01 [4] = assay: IEDB peptide-MHC binding, purified MHC/competitive/radioactivity; filed as Kd, often an IC50 or EC50 that approximates it; ≥ and ≤ were set here for values at or beyond the usual limits of such assays
[5] = source organism: Human immunodeficiency virus type 1 (NDK ISOLATE)
[6] = source organism: Hepatitis B virus subtype adyw
[7] = source organism: Plasmodium falciparum

## AVDLSHFLK
HLA-A*03:01 [1]
  IC50: 0.149 µM
HLA-A*24:02; [5]
  Kd: ≥ 5 µM
HLA-A*02:01 [2]; [5]
  Kd: ≥ 5 µM
HLA-A*01:01; [5]
  Kd: ≥ 5 µM

## EADPTGHSY
HLA-A*24:02; source organism: Homo sapiens
  Kd: ≥ 5 µM
HLA-A*11:01; source organism: Homo sapiens
  Kd: ≥ 5 µM

## ELRSRYWAI
HLA-A*24:02; source organism: Influenza A virus (A/Puerto Rico/8/1934(H1N1))
  Kd: ≥ 5 µM

## FLPSDFFP
HLA-A*02:01 [2]; [6]
  Kd: ≥ 50 µM

## FLPSDFFPS
HLA-A*02:01 [3]
  IC50: 0.117 µM

## FLPSDFFPSVR
HLA-A*02:01 [3]
  IC50: 0.305 µM

## ILKEPVHGV
HLA-A*24:02; [5]
  Kd: ≥ 5 µM
HLA-A*01:01; [5]
  Kd: ≥ 5 µM
HLA-A*11:01; [5]
  Kd: ≥ 5 µM
HLA-A*03:01 [4]; [5]
  Kd: ≥ 5 µM

## KPIVQYDNF
HLA-A*24:02; [7]
  Kd: ≥ 5 µM
HLA-A*02:01 [2]; [7]
  Kd: ≥ 5 µM
HLA-A*01:01; [7]
  Kd: ≥ 5 µM
HLA-A*11:01; [7]
  Kd: ≥ 5 µM
HLA-A*03:01 [4]; [7]
  Kd: ≥ 5 µM

## KRYEGLTQR
HLA-A*24:02; source organism: Homo sapiens
  Kd: ≥ 5 µM
HLA-A*02:01 [2]; source organism: Homo sapiens
  Kd: ≥ 5 µM
HLA-A*01:01; source organism: Homo sapiens
  Kd: ≥ 5 µM
HLA-A*11:01; source organism: Homo sapiens
  Kd: ≥ 5 µM
HLA-A*03:01 [4]; source organism: Homo sapiens
  Kd: ≥ 5 µM

## LLGRNSFEV
HLA-A*24:02; source organism: Homo sapiens
  Kd: ≥ 5 µM
HLA-A*01:01; source organism: Homo sapiens
  Kd: ≥ 5 µM
HLA-A*11:01; source organism: Homo sapiens
  Kd: ≥ 5 µM
HLA-A*03:01 [4]; source organism: Homo sapiens
  Kd: ≥ 5 µM

## PSDFFPSV
HLA-A*02:01 [2]; [6]
  Kd: ≥ 50 µM

## RRYQKSTEL
HLA-A*24:02; source organism: Homo sapiens
  Kd: ≥ 5 µM
HLA-A*02:01 [2]; source organism: Homo sapiens
  Kd: ≥ 5 µM
HLA-A*01:01; source organism: Homo sapiens
  Kd: ≥ 5 µM
HLA-A*11:01; source organism: Homo sapiens
  Kd: ≥ 5 µM
HLA-A*03:01 [4]; source organism: Homo sapiens
  Kd: ≥ 5 µM

## SFLPSDFFPSV
HLA-A*02:01 [2]; [6]
  Kd: ≥ 50 µM

## WLSLLVPFV
HLA-A*01:01; [6]
  Kd: ≥ 5 µM
